# Biological target: Fyn (UniProt P06241)
# Test: phosphorylation enrichment, bacterial display (enrichment ratio); higher = better substrate or ligand; peptides without Tyr show the background
# 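Note: 11-residue human phosphosite peptides and single-mutation variants displayed on the E. coli surface, counted by deep sequencing, each peptide's frequency after selection divided by its frequency in the unselected input library; frequency after pTyr selection over input frequency; kinase dosed for 20-30% of maximal phosphorylation in three min.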
# Sequence of Fyn (P06241 whole entry, looked up): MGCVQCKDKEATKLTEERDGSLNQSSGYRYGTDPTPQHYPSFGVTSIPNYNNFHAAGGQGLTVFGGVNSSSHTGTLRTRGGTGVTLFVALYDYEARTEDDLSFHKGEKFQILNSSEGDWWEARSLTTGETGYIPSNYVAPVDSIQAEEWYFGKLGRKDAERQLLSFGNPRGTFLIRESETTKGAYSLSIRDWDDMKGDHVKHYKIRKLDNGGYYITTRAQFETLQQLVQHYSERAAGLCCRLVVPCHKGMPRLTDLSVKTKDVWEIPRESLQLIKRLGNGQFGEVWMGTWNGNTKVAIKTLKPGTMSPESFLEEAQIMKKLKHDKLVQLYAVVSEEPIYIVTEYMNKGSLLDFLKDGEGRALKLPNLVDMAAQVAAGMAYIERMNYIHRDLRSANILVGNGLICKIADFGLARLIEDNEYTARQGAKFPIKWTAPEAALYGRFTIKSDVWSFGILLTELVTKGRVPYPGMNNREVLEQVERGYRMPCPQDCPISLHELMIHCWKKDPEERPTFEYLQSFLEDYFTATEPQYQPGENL
row,Sequence,phosphorylation enrichment
1,MDQAEYQAKIQ [DHX58_Y518_R523Q],0.464
2,LDAFIYNAAVL [GRIN2A_Y730_D731N],4.57
3,VNTTLYEKFTY [TEK_Y1108],3.69
4,AALVQYFMEHH [PTPN11_Y80_E76A_YF],0.439
5,YGLQAYTKVKT [ALDH2_Y502_E504K],0.357
6,LGQRIYQFIRS [DYRK1B_Y271_Q275R_YF],1.86
7,CTLLPYYSAPV [DGKE_Y269_R273P],0.792
8,GGGGGYNRSSG [FUS_Y232],0.371
9,LRNRVYEVPVE [SLC26A3_Y756],1.17
10,KRISCYEASYQ [PFKFB3_Y194],0.452
11,CSHMFYGKQCC [ADAMTS16_Y1211_K1209M],0.653
12,ARMTNYGLPRF [TSPAN12_Y138_YF],0.401
13,RGDIFYTSKLW [AKR1C3_Y81_E77G],0.611
14,MARDIYRASFF [ALK_Y1278_YF],0.566
15,GYEEAYSVFKK [PAFAH1B1_Y28],2.37
16,LEIETYPRLLD [KRT12_Y429_R430P],0.599
17,LMQAEYWHDPI [PPT1_Y185_V181M],0.835

row,Sequence,phosphorylation enrichment
1,RDSQLYAVDFE [MRPS34_Y34_YF],0.993
2,IEDNKYTAREG [HCK_Y411_E410K],0.507
3,ETMNKYDLSGR [MYEF2_Y164],0.434
4,FQKNSYSEELR [LMNA_Y211_I210S],0.456
5,DEEPPYRGPFC [SASH1_Y551],0.437
6,VRQQDYKKVEE [HADHA_Y283_V282D],0.417
7,AKLDIYKRKVE [VWA3B_Y918_N916D],0.485
8,TLMNAYSSRCH [KIF11_Y231_S235C],0.571
9,NNRVFYGNSDC [RS1_Y177_R182C],0.434
10,GQETSYIEDNC [PAH_Y24],0.507
11,QFLMKYVRSAS [ABCD1_Y337_W339R],0.605
12,GSSEDYLHMVH [NIPBL_Y247],0.423
13,IFHENYNAGTY [CFI_Y421],0.664
14,RGDVIYKGFED [NFU1_Y194_G189R],4.47
15,RAIELYNDKEK [OTULIN_Y244],0.558
16,ISSLRYKLLEE [TRPC6_Y896_E897K],0.503

# Tested on: c-Abl (mouse)
# Test: as above
row,Sequence,phosphorylation enrichment
1,MDQAEYQAKIQ [DHX58_Y518_R523Q],0.726
2,LDAFIYNAAVL [GRIN2A_Y730_D731N],0.972
3,VNTTLYEKFTY [TEK_Y1108],0.908
4,AALVQYFMEHH [PTPN11_Y80_E76A_YF],0.665
5,YGLQAYTKVKT [ALDH2_Y502_E504K],0.614
6,LGQRIYQFIRS [DYRK1B_Y271_Q275R_YF],0.98
7,CTLLPYYSAPV [DGKE_Y269_R273P],1.65
8,GGGGGYNRSSG [FUS_Y232],0.574
9,LRNRVYEVPVE [SLC26A3_Y756],1.52
10,KRISCYEASYQ [PFKFB3_Y194],0.74
11,CSHMFYGKQCC [ADAMTS16_Y1211_K1209M],0.713
12,ARMTNYGLPRF [TSPAN12_Y138_YF],0.496
13,RGDIFYTSKLW [AKR1C3_Y81_E77G],0.889
14,MARDIYRASFF [ALK_Y1278_YF],3.1
15,GYEEAYSVFKK [PAFAH1B1_Y28],1.96
16,LEIETYPRLLD [KRT12_Y429_R430P],1.1
17,LMQAEYWHDPI [PPT1_Y185_V181M],0.724

row,Sequence,phosphorylation enrichment
1,RDSQLYAVDFE [MRPS34_Y34_YF],0.876
2,IEDNKYTAREG [HCK_Y411_E410K],0.756
3,ETMNKYDLSGR [MYEF2_Y164],0.507
4,FQKNSYSEELR [LMNA_Y211_I210S],0.544
5,DEEPPYRGPFC [SASH1_Y551],0.673
6,VRQQDYKKVEE [HADHA_Y283_V282D],0.423
7,AKLDIYKRKVE [VWA3B_Y918_N916D],0.411
8,TLMNAYSSRCH [KIF11_Y231_S235C],0.738
9,NNRVFYGNSDC [RS1_Y177_R182C],0.742
10,GQETSYIEDNC [PAH_Y24],0.74
11,QFLMKYVRSAS [ABCD1_Y337_W339R],0.82
12,GSSEDYLHMVH [NIPBL_Y247],0.646
13,IFHENYNAGTY [CFI_Y421],0.603
14,RGDVIYKGFED [NFU1_Y194_G189R],0.445
15,RAIELYNDKEK [OTULIN_Y244],0.845
16,ISSLRYKLLEE [TRPC6_Y896_E897K],0.603

# Biological target: MERTK (UniProt Q12866)
# Sequence (Q12866 whole entry, looked up): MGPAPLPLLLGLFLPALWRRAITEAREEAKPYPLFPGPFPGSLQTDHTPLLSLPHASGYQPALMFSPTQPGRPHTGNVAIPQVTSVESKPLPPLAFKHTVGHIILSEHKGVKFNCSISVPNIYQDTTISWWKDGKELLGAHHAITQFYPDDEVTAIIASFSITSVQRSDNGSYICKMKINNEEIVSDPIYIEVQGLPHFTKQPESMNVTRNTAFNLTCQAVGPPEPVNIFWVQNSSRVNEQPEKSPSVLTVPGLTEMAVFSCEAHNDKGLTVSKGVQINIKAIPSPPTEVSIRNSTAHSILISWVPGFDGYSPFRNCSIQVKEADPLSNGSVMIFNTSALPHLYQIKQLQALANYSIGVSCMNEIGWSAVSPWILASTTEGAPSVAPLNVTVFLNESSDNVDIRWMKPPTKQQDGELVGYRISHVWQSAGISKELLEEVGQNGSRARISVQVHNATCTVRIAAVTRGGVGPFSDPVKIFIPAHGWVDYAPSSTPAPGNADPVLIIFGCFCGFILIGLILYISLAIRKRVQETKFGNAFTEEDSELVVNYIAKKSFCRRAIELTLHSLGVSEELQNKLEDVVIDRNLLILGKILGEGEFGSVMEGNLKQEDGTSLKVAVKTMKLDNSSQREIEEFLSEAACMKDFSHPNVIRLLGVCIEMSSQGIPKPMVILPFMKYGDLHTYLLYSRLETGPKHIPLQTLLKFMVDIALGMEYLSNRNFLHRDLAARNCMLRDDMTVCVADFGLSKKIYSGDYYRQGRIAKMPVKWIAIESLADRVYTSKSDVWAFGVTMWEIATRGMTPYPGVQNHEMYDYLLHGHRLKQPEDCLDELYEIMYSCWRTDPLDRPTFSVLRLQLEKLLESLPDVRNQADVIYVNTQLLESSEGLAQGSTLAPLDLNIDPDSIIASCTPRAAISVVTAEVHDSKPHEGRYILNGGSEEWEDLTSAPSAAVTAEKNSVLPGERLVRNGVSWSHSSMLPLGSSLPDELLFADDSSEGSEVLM
# Test: as above
row,Sequence,phosphorylation enrichment
1,MDQAEYQAKIQ [DHX58_Y518_R523Q],0.519
2,LDAFIYNAAVL [GRIN2A_Y730_D731N],0.704
3,VNTTLYEKFTY [TEK_Y1108],4.25
4,AALVQYFMEHH [PTPN11_Y80_E76A_YF],0.401
5,YGLQAYTKVKT [ALDH2_Y502_E504K],0.414
6,LGQRIYQFIRS [DYRK1B_Y271_Q275R_YF],6.97
7,CTLLPYYSAPV [DGKE_Y269_R273P],4.17
8,GGGGGYNRSSG [FUS_Y232],0.435
9,LRNRVYEVPVE [SLC26A3_Y756],3.3
10,KRISCYEASYQ [PFKFB3_Y194],0.493
11,CSHMFYGKQCC [ADAMTS16_Y1211_K1209M],0.485
12,ARMTNYGLPRF [TSPAN12_Y138_YF],0.511
13,RGDIFYTSKLW [AKR1C3_Y81_E77G],0.803
14,MARDIYRASFF [ALK_Y1278_YF],0.472
15,GYEEAYSVFKK [PAFAH1B1_Y28],0.654
16,LEIETYPRLLD [KRT12_Y429_R430P],0.461
17,LMQAEYWHDPI [PPT1_Y185_V181M],0.557

row,Sequence,phosphorylation enrichment
1,RDSQLYAVDFE [MRPS34_Y34_YF],1.9
2,IEDNKYTAREG [HCK_Y411_E410K],0.356
3,ETMNKYDLSGR [MYEF2_Y164],0.633
4,FQKNSYSEELR [LMNA_Y211_I210S],0.425
5,DEEPPYRGPFC [SASH1_Y551],0.332
6,VRQQDYKKVEE [HADHA_Y283_V282D],0.419
7,AKLDIYKRKVE [VWA3B_Y918_N916D],0.291
8,TLMNAYSSRCH [KIF11_Y231_S235C],0.448
9,NNRVFYGNSDC [RS1_Y177_R182C],0.369
10,GQETSYIEDNC [PAH_Y24],0.466
11,QFLMKYVRSAS [ABCD1_Y337_W339R],0.476
12,GSSEDYLHMVH [NIPBL_Y247],0.485
13,IFHENYNAGTY [CFI_Y421],0.533
14,RGDVIYKGFED [NFU1_Y194_G189R],0.481
15,RAIELYNDKEK [OTULIN_Y244],0.54
16,ISSLRYKLLEE [TRPC6_Y896_E897K],0.347

# Biological target: EPHB2 (UniProt P29323)
# Sequence (P29323 whole entry, looked up): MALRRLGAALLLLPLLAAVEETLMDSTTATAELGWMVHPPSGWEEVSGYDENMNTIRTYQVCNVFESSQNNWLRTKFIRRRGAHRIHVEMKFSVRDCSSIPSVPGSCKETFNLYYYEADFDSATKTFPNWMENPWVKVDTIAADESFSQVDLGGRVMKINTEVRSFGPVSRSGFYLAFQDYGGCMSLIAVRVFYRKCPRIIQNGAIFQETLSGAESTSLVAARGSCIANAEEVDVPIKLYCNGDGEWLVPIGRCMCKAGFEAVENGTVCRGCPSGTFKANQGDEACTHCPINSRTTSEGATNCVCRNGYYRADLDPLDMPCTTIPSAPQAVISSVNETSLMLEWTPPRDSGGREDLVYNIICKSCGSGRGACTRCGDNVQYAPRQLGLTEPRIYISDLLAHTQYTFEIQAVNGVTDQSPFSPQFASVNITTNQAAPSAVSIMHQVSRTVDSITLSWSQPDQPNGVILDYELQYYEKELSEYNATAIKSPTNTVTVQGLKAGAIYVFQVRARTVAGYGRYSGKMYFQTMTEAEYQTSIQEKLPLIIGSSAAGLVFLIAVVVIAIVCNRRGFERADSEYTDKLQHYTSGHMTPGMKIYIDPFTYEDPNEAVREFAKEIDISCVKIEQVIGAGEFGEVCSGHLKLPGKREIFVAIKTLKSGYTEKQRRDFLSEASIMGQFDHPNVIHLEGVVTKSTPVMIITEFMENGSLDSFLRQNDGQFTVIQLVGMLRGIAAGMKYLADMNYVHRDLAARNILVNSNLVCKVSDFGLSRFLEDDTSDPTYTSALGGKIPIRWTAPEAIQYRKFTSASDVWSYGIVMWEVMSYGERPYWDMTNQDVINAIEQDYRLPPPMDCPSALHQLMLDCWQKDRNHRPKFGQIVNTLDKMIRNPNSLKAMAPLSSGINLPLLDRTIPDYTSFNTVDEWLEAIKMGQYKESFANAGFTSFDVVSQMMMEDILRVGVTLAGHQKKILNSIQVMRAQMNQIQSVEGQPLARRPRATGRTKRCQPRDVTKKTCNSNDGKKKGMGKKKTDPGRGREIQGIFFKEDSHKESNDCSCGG
# Test: as above
row,Sequence,phosphorylation enrichment
1,MDQAEYQAKIQ [DHX58_Y518_R523Q],0.7
2,LDAFIYNAAVL [GRIN2A_Y730_D731N],1.57
3,VNTTLYEKFTY [TEK_Y1108],1.13
4,AALVQYFMEHH [PTPN11_Y80_E76A_YF],0.541
5,YGLQAYTKVKT [ALDH2_Y502_E504K],0.462
6,LGQRIYQFIRS [DYRK1B_Y271_Q275R_YF],2.54
7,CTLLPYYSAPV [DGKE_Y269_R273P],2.29
8,GGGGGYNRSSG [FUS_Y232],0.271
9,LRNRVYEVPVE [SLC26A3_Y756],1.54
10,KRISCYEASYQ [PFKFB3_Y194],0.484
11,CSHMFYGKQCC [ADAMTS16_Y1211_K1209M],0.543
12,ARMTNYGLPRF [TSPAN12_Y138_YF],0.542
13,RGDIFYTSKLW [AKR1C3_Y81_E77G],0.963
14,MARDIYRASFF [ALK_Y1278_YF],0.434
15,GYEEAYSVFKK [PAFAH1B1_Y28],0.605
16,LEIETYPRLLD [KRT12_Y429_R430P],0.953
17,LMQAEYWHDPI [PPT1_Y185_V181M],0.863

row,Sequence,phosphorylation enrichment
1,RDSQLYAVDFE [MRPS34_Y34_YF],0.869
2,IEDNKYTAREG [HCK_Y411_E410K],0.543
3,ETMNKYDLSGR [MYEF2_Y164],0.391
4,FQKNSYSEELR [LMNA_Y211_I210S],0.342
5,DEEPPYRGPFC [SASH1_Y551],0.396
6,VRQQDYKKVEE [HADHA_Y283_V282D],0.561
7,AKLDIYKRKVE [VWA3B_Y918_N916D],0.283
8,TLMNAYSSRCH [KIF11_Y231_S235C],0.553
9,NNRVFYGNSDC [RS1_Y177_R182C],0.486
10,GQETSYIEDNC [PAH_Y24],0.758
11,QFLMKYVRSAS [ABCD1_Y337_W339R],0.666
12,GSSEDYLHMVH [NIPBL_Y247],0.473
13,IFHENYNAGTY [CFI_Y421],0.585
14,RGDVIYKGFED [NFU1_Y194_G189R],0.672
15,RAIELYNDKEK [OTULIN_Y244],0.821
16,ISSLRYKLLEE [TRPC6_Y896_E897K],0.476

# Reference: the supplement of paper PMC10065799, “High-throughput profiling of sequence recognition by tyrosine kinases and SH2 domains using bacterial peptide display” (eLife, 2023)
